From US20250243281A1

Experiments:
BSA (bovine) = BSA (bovine) (UniProt P02769); test: polyspecificity ELISA, BSA-blocked control wells, 100 nM antibody
human insulin (human) = human insulin (human) (UniProt P01308); test: polyspecificity ELISA, coated insulin, 100 nM antibody
FcRn = FcRn (UniProt P55899); test: BLI Octet, biotinylated FcRn on streptavidin sensor, pH 5.0, global 1:1 fit

Sequence of human insulin (human) (P01308 25-54 limits assumed, chain 1 of 2): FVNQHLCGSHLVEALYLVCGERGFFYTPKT
Sequence of human insulin (human) (P01308 90-110 limits assumed, chain 2 of 2): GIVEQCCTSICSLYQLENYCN
Sequence of BSA (bovine) (P02769 25-607 limits assumed): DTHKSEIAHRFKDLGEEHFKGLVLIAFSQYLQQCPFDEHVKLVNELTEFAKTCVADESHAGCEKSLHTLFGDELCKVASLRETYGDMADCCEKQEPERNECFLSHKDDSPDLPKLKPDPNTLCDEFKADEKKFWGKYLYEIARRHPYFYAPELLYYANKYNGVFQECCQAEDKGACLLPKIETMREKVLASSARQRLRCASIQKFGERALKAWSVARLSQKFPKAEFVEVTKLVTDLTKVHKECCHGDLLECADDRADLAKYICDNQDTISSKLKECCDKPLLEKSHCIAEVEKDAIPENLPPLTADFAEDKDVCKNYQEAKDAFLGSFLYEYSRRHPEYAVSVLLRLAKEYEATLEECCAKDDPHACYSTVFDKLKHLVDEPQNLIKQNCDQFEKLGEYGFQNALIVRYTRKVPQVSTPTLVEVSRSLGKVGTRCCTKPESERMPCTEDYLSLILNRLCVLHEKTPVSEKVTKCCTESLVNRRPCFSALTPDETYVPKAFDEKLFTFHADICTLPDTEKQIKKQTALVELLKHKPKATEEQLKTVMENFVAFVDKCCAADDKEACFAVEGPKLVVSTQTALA

A450 nm (BSA (bovine))	A450 nm (human insulin (human))	Norm (signal over AdalimumAb) (human insulin (human))	Kd (FcRn)	Substance
0.1	0.16	2.29 fold	–	Ustekinumab (antibody)
–	–	–	0.13 nM	wild type human IgG1 antibody
